# PMC2615621 (Nucleic Acids Research, 2008)
# Read-outs that look alike come from different tables or passages of the source.
# B1: SEP3ΔC, C-terminally truncated SEP3, in vitro translated (domain or fragment)
# chain: MGRGRVELKRIENKINRQVTFAKRRNGLLKKAYELSVLCDAEVALIIFSNRGKLYEFCSSSSMLRTLERYQKCNYGAPEPNVPSREALAVELSSQQEYLKLKERYDALQRTQRNLLGEDLGPLSTKELESLERQLDSSLKQIRALRTQFMLDQLNDLQSKERMLTETNKTLRLRLADGYQMPLQLNPN
# modifications: 35S-methionine in some experiments
# Key:
# Assay in all cases: native gel or EMSA
# [1] = target: …3 (SEP3), full-length, in vitro translated (Arabidopsis thaliana) (UniProt O22456)
# [2] = target: …3 (SEP3), full-length, in vitro translated (Arabidopsis thaliana) (UniProt O22456); remark: listed apart in the source
# native gel or EMSA [3] = target: the molecule itself
# native gel or EMSA [4] = target: the molecule itself; remark: listed apart in the source
molecule,measurement,setting,value
"…3 (SEP3), full-length, in vitro translated (from UniProt O22456 1-251) (natural protein)",apparent Kd1/Kd2 (cooperativity of two dimers on DNA),[1],83
same,stoichiometry N,[1],2
same,stoichiometry N,[2],4
B1,apparent Kd1/Kd2 (cooperativity of two dimers on DNA),native gel or EMSA [3],89
same,stoichiometry N,native gel or EMSA [4],2
